This note sets out measurements from article PMC9431562, “A Cytoplasmic NAD(P)H-Dependent Polysulfide Reductase with Thiosulfate Reductase Activity from the Hyperthermophilic Bacterium Thermotoga maritima” (Microbiology Spectrum, 2022).

The target of series [1] is T1, NSR (Thermotoga maritima, UniProt Q9WYL1).
T1 construct: gene TM_0379; full-length ORF amplified from genomic DNA, pET-24b(+) BamHI/XhoI, His-tagged, E. coli BL21; about 50 kDa by SDS-PAGE; FAD flavoprotein; purified anaerobically
T1 sequence (Q9WYL1 1-443): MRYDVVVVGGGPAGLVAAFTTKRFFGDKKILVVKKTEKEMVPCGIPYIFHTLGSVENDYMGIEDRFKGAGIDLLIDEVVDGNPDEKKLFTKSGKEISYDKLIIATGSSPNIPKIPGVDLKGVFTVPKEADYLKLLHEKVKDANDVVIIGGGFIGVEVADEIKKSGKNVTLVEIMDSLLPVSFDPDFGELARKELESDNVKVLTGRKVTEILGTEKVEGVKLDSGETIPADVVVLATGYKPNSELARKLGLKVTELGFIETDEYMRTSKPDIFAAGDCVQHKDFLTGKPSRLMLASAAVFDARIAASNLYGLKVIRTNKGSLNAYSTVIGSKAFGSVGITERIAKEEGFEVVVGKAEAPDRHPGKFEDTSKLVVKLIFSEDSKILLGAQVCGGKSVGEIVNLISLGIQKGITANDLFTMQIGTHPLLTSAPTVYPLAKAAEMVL
Briefly: thin-layer chromatography of cofactor. In kind it is binding. To be noted: as-purified recombinant enzyme.

Substrate in series [2]: NC(=O)C1=CN([C@@H]2O[C@H](COP(=O)(O)OP(=O)(O)OC[C@H]3O[C@@H](n4cnc5c(N)ncnc54)[C@H](O)[C@@H]3O)[C@@H](O)[C@H]2O)C=CC1
Briefly: purified protein. In kind it is biochemical, Thermotoga maritima. The conditions noted are these: co-substrate S^0, 50 mM phosphate pH 7.0, 45 °C, anaerobic, table cell does not tell whether CoA was present.

Substrate in series [3]: NC(=O)C1=CN([C@@H]2O[C@H](COP(=O)(O)OP(=O)(O)OC[C@H]3O[C@@H](n4cnc5c(N)ncnc54)[C@H](OP(=O)(O)O)[C@@H]3O)[C@@H](O)[C@H]2O)C=CC1
As to the kind of experiment: purified protein. In kind it is biochemical, Thermotoga maritima. To be noted: co-substrate S^0, 50 mM phosphate pH 7.0, 45 °C, anaerobic, table cell does not tell whether CoA was present.

Substrate in series [4]: O=S(O)(O)=S
As to the kind of experiment: purified protein. In kind it is biochemical, Thermotoga maritima. To be noted: co-substrate NADH, 50 mM phosphate pH 7.0, 45 °C, anaerobic, table cell does not tell whether CoA was present.

As for `Cc1cc2nc3c(=O)[nH]c(=O)nc-3n(C[C@H](O)[C@H](O)[C@H](O)COP(=O)(O)OP(=O)(O)OC[C@H]3O[C@@H](n4cnc5c(N)ncnc54)[C@H](O)[C@@H]3O)c2cc1C` [FAD], the “thin-layer chromatography of cofactor” value in series [1] was “Thin-layer chromatography analysis showed that it binds FAD as its cofactor”.

B1: NSR (Thermotoga maritima MSB8) (protein)
chain: T1 sequence (Q9WYL1 1-443)
notes: full-length ORF amplified from genomic DNA, pET-24b(+) BamHI/XhoI, His-tagged, E. coli BL21; about 50 kDa by SDS-PAGE; FAD flavoprotein; purified anaerobically
What is called Km is the substrate concentration at which the rate is half of its maximum. Consider B1, for which the Michaelis constant (Km) in series [2] was found to be 50 ± 6.3 µM; in series [3] it was 80 ± 21.2 µM; in series [4] it was 10 ± 1.2 µM.
